Data from patent publication US20220402985A1.
Changes are numbered by the printed parent chain. Names may count otherwise. “And” between values parts separate entries of the source, which are not always exact repeats. Identical values can stand only once.

B1: huNRG1(S177-Q237)(1D4)::GG::huFcSEFL2 (Pb) (Fc fusion)
chain: SHLVKCGERDKTFCVNGGECYVVEHSSNPSRYLCKCPNEFTGDRCQKFFLASFYKAEELYQGGDKTHTCPPCPAPELLGGPSVFLFPPKPKDTLMISRTPEVTCVVVDVSHEDPEVKFNWYVDGVEVHNAKTKPCEEQYGSTYRCVSVLTVLHQDWLNGKEYKCKVSNKALPAPIEKTISKAKGQPREPQVYTLPPSREEMTKNQVSLTCLVKGFYPSDIAVEWESNGQPENNYKTTPPVLDSDGSFFLYSKLTVDKSRWQQGNVFSCSVMHEALHNHYTQKSLSLSPGK
B2: huNRG1(S177-Q237)(NRGE1A)::GG::huFcSEFL2 (Pb) (Fc fusion)
chain: SHLVKCAENDKSFCVNGGECFMIEGPSNPSRYLCKCPNEFTGDRCQEDFMASFYKAEELYQGGDKTHTCPPCPAPELLGGPSVFLFPPKPKDTLMISRTPEVTCVVVDVSHEDPEVKFNWYVDGVEVHNAKTKPCEEQYGSTYRCVSVLTVLHQDWLNGKEYKCKVSNKALPAPIEKTISKAKGQPREPQVYTLPPSREEMTKNQVSLTCLVKGFYPSDIAVEWESNGQPENNYKTTPPVLDSDGSFFLYSKLTVDKSRWQQGNVFSCSVMHEALHNHYTQKSLSLSPGK
B3: huNRG1(S177-Q237)(NRGE1C)::GG::huFcSEFL2 (Pb) (Fc fusion)
chain: B2 chain with A7G, N9K, D10H
B4: huNRG1(S177-Q237)(NRGE1L)::GG::huFcSEFL2 (Pb) (Fc fusion)
chain: B2 chain with A7G, N9S, D10H, F21Y, I23V, P26S, N28I, E47D
B5: huNRG1(S177-Q237)(NRGE1H)::GG::huFcSEFL2 (Pb) (Fc fusion)
chain: B2 chain with A7G, N9S, D10H, E47N
B6: huNRG1(S177-Q237)(NRGE1B)::GG::huFcSEFL2 (Pb) (Fc fusion)
chain: B2 chain with A7G, F21Y, I23V, P26S, N28I
B7: huNRG1(S177-Q237)(NRGE1E)::GG::huFcSEFL2 (Pb) (Fc fusion)
chain: B2 chain with A7G, E47N
B8: huNRG1(S177-Q237)(NRGE1G)::GG::huFcSEFL2 (Pb) (Fc fusion)
chain: B2 chain with A7G, N9K, D10H, F21Y, I23V, P26S, N28I, E47N
B9: huNRG1(S177-Q237)(NRGE1O)::GG::huFcSEFL2 (Pb) (Fc fusion)
chain: B1 chain with R9K, D10H, T12S, V22M, H25G, N28I, K47D, L50M
B10: huNRG1(S177-Q237)(NRGE1D)::GG::huFcSEFL2 (Pb) (Fc fusion)
chain: B2 chain with A7G, N9S, D10H, F21Y, I23V, P26S, N28I
B11: huNRG1(S177-Q237)(NRGE1N)::GG::huFcSEFL2 (Pb) (Fc fusion)
chain: B2 chain with A7G, F21Y, I23V, P26S, N28I, E47D, D48F
B12: huNRG1(S177-Q237)(NRGE1I)::GG::huFcSEFL2 (Pb) (Fc fusion)
chain: B2 chain with A7G, E47D
B13: huNRG1(S177-Q237)(NRGE1M)::GG::huFcSEFL2 (Pb) (Fc fusion)
chain: B2 chain with A7G, E47D, D48F
B14: huNRG1(S177-Q237)(NRGE1F)::GG::huFcSEFL2 (Pb) (Fc fusion)
chain: B2 chain with F21Y, I23V, P26S, N28I, E47N
B15: huNRG1(S177-Q237)(NRGE1J)::GG::huFcSEFL2 (Pb) (Fc fusion)
chain: B2 chain with A7G, F21Y, I23V, P26S, N28I, E47D
B16: huNRG1(S177-Q237)(NRGE1K)::GG::huFcSEFL2 (Pb) (Fc fusion)
chain: B2 chain with N9K, D10H, E47D
B17: :huFcSEFL2(desK)vl31(+):G4SG4:huNRG1(S177-F229)(NRGE1C) (Fc fusion)
chain: DKTHTCPPCPAPELLGGPSVFLFPPKPKDTLMISRTPEVTCVVVDVSHEDPEVKFNWYVDGVEVHNAKTKPCEEQYGSTYRCVSVLTVLHQDWLNGKEYKCKVSNKALPAPIEKTISKAKGQPREPQVYTLPPSREKMTKNQVSLTCLVKGFYPSDIAVEWESNGQPENNYKTTPPVLKSDGSFFLYSKLTVDKSRWQQGNVFSCSVMHEALHNHYTQKSLSLSPGGGGGSGGGGSHLVKCGEKHKSFCVNGGECFMIEGPSNPSRYLCKCPNEFTGDRCQEDFMASFDKTHTCPPCPAPELLGGPSVFLFPPKPKDTLMISRTPEVTCVVVDVSHEDPEVKFNWYVDGVEVHNAKTKPCEEQYGSTYRCVSVLTVLHQDWLNGKEYKCKVSNKALPAPIEKTISKAKGQPREPQVYTLPPSREEMTENQVSLTCLVEGFYPSDIAVEWESNGQPENNYETTPPVLDSDGSFFLYSDLTVDKSRWQQGNVFSCSVMHEALHNHYTQKSLSLSPGK
B18: :huFcSEFL2(desK)vl31(+):G4SG4:huNRG1(S177-F229)(NRGE1D) (Fc fusion)
chain: B17 chain with K244S, F256Y, I258V, P261S, N263I
B19: :huFcSEFL2(desK)vl31(+):G4SG4:huNRG1(S177-Q237)(NRGE1C) (Fc fusion)
chain: DKTHTCPPCPAPELLGGPSVFLFPPKPKDTLMISRTPEVTCVVVDVSHEDPEVKFNWYVDGVEVHNAKTKPCEEQYGSTYRCVSVLTVLHQDWLNGKEYKCKVSNKALPAPIEKTISKAKGQPREPQVYTLPPSREKMTKNQVSLTCLVKGFYPSDIAVEWESNGQPENNYKTTPPVLKSDGSFFLYSKLTVDKSRWQQGNVFSCSVMHEALHNHYTQKSLSLSPGGGGGSGGGGSHLVKCGEKHKSFCVNGGECFMIEGPSNPSRYLCKCPNEFTGDRCQEDFMASFYKAEELYQDKTHTCPPCPAPELLGGPSVFLFPPKPKDTLMISRTPEVTCVVVDVSHEDPEVKFNWYVDGVEVHNAKTKPCEEQYGSTYRCVSVLTVLHQDWLNGKEYKCKVSNKALPAPIEKTISKAKGQPREPQVYTLPPSREEMTENQVSLTCLVEGFYPSDIAVEWESNGQPENNYETTPPVLDSDGSFFLYSDLTVDKSRWQQGNVFSCSVMHEALHNHYTQKSLSLSPGK
B20: :huFcSEFL2(desK)vl31(+):G4SG4:huNRG1(S177-Q237)(NRGE1D) (Fc fusion)
chain: B19 chain with K244S, F256Y, I258V, P261S, N263I
B21: :huNRG1(S177-F229)(NRGE1C)::2X(G4A)G4::huFcSEFL2v131(+) (Fc fusion)
chain: SHLVKCGEKHKSFCVNGGECFMIEGPSNPSRYLCKCPNEFTGDRCQEDFMASFGGGGAGGGGAGGGGDKTHTCPPCPAPELLGGPSVFLFPPKPKDTLMISRTPEVTCVVVDVSHEDPEVKFNWYVDGVEVHNAKTKPCEEQYGSTYRCVSVLTVLHQDWLNGKEYKCKVSNKALPAPIEKTISKAKGQPREPQVYTLPPSREKMTKNQVSLTCLVKGFYPSDIAVEWESNGQPENNYKTTPPVLKSDGSFFLYSKLTVDKSRWQQGNVFSCSVMHEALHNHYTQKSLSLSPGKDKTHTCPPCPAPELLGGPSVFLFPPKPKDTLMISRTPEVTCVVVDVSHEDPEVKFNWYVDGVEVHNAKTKPCEEQYGSTYRCVSVLTVLHQDWLNGKEYKCKVSNKALPAPIEKTISKAKGQPREPQVYTLPPSREEMTENQVSLTCLVEGFYPSDIAVEWESNGQPENNYETTPPVLDSDGSFFLYSDLTVDKSRWQQGNVFSCSVMHEALHNHYTQKSLSLSPGK
B22: :huNRG1(S177-F229)(NRGE1C)::2X(G4E)G4::huFcSEFL2v131(+) (Fc fusion)
chain: B21 chain with A58E, A63E
B23: :huNRG1(S177-F229)(NRGE1D)::2X(G4E)G4::huFcSEFL2v131(+) (Fc fusion)
chain: B21 chain with K9S, F21Y, I23V, P26S, N28I, A58E, A63E
B24: :huNRG1(S177-F229)(NRGE1D)::2X(G4A)G4::huFcSEFL2v131(+) (Fc fusion)
chain: B21 chain with K9S, F21Y, I23V, P26S, N28I

Columns and labels:
[1] = target: ErbB3 on rat Schwann cells (rat) (UniProt Q62799); assay: cell-based or functional assay
Chain of ErbB3 on rat Schwann cells (rat) (Q62799 20-1339): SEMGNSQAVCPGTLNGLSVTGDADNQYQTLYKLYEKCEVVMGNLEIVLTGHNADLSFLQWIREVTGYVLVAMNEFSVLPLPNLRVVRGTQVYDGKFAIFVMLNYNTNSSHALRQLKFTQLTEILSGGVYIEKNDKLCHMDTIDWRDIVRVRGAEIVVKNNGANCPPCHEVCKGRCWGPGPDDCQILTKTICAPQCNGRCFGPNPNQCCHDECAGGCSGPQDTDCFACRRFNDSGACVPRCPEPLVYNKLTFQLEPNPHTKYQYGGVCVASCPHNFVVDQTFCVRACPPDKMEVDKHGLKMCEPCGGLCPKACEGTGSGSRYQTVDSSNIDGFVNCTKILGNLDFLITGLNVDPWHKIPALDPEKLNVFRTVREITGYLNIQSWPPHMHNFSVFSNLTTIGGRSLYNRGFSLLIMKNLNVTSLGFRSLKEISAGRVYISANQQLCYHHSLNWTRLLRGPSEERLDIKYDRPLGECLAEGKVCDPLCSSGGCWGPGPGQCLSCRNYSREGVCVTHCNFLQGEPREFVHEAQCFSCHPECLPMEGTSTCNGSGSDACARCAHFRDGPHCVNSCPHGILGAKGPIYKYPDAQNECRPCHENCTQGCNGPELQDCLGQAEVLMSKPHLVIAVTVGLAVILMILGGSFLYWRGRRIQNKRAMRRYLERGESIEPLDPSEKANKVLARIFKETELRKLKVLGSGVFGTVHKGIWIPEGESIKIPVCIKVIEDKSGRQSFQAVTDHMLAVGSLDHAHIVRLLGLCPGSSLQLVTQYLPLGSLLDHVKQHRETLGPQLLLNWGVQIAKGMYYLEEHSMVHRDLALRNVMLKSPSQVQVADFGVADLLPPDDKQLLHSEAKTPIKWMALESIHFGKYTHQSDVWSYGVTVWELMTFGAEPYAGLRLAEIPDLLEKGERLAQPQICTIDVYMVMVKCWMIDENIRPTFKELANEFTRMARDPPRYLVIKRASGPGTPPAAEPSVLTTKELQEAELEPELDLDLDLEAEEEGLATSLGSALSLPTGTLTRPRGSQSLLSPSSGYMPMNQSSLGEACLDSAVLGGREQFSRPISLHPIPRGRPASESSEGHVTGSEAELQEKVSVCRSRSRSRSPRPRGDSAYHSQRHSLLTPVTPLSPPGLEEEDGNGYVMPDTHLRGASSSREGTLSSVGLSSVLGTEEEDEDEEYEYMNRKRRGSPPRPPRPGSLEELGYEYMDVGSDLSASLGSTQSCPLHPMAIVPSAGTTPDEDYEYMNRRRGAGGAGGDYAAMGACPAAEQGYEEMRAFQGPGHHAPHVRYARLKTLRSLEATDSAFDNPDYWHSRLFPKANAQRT

[2] = target: ErbB4 on neonatal rat cardiomyocytes (rat) (UniProt Q62956); assay: cell-based or functional assay
Chain of ErbB4 on neonatal rat cardiomyocytes (rat) (Q62956 26-1308): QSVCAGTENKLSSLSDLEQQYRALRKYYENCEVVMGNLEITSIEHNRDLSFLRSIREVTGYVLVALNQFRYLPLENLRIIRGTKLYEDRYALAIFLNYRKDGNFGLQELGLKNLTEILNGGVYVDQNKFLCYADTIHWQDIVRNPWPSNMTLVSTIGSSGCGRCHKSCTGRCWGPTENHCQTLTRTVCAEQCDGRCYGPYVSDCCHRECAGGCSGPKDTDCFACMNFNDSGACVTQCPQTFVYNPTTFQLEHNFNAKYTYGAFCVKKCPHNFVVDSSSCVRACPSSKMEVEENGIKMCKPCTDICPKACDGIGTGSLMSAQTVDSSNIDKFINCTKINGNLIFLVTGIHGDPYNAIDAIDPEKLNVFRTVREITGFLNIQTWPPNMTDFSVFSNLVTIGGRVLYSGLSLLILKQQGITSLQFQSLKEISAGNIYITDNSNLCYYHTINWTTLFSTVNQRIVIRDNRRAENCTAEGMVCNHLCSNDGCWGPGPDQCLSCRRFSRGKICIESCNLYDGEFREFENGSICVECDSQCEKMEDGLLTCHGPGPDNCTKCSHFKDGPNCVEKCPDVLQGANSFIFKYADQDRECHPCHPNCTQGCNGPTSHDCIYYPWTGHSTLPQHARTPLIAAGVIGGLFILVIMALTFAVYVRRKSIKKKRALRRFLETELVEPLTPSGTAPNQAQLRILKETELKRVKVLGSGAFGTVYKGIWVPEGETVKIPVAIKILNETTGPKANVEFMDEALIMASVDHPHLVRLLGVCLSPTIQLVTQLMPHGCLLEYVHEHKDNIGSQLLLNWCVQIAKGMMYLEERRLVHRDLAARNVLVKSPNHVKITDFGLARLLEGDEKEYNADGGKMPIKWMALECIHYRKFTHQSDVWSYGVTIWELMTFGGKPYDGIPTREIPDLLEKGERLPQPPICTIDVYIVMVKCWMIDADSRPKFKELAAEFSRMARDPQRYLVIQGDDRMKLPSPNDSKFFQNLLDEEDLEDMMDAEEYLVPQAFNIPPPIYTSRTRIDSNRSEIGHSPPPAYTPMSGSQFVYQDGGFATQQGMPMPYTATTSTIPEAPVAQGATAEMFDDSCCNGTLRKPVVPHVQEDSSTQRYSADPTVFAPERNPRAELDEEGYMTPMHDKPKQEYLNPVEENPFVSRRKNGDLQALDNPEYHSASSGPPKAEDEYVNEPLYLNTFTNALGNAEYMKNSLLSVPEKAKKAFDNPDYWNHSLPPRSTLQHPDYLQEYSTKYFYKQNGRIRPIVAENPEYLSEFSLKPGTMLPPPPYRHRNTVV

Row | Molecule | Schwann cells (SC) (ErbB3) Avg EC50 [1] [nM] | Cardiomyocyte (CM) (ErbB4) Avg EC50 [2] | Selectivity SC/CM [2] | CM % Agonism AVG [2] [%]
1 | huNRG1(S177-F229)(wt)::3x(G4Q)::huFcSEFL2 (Pb) (Fc fusion) | 0.1 | 0.34 nM | 0.3 | –
2 | huNRG1(S177-F229) huIgG1z SELF2 Fc (Fc fusion) | 0.14 | 0.31 nM | 0.452 | 91.4
3 | huNRG1(S177-Q237)(wt)::3x(G4Q)::huFcSEFL2 (Pb) (from UniProt P0DOX5 223-449) (Fc fusion) | 0.07 | 0.21 nM | 0.3 | –
4 | huNRG1(S177-S228)(wt)::3x(G4Q)::huFcSEFL2 (Pb) (from UniProt P0DOX5 300-449) (Fc fusion) | 0.07 | 2.6 nM | 0.03 | –
5 | huNRG1(S177-S228)(wt)((G4E)2:G4)::huFcSEFL2 (Pb) (Fc fusion) | 0.0222 | 0.084 nM | 0.264 | 92.6
6 | B1 | – | 0.924 nM and 0.576 nM | – | –
7 | B2 | > 10000 | 1.84 nM | > 5500 | 72
8 | B3 | > 10000 | 0.476 nM and 0.41 nM | > 10000 | 82
9 | B4 | > 10000 | 2.29 nM | > 4370 | 74
10 | B5 | > 10000 | 0.286 nM | > 10000 | 88
11 | B6 | > 10000 | 1.48 nM | > 6700 | 76
12 | B7 | > 10000 | 0.995 nM | > 10000 | 83
13 | B8 | > 10000 | 0.218 nM | > 10000 | 84
14 | B9 | 546 | 1.04 nM | 526 | 27
15 | B10 | > 10000 | 0.303 nM and 0.33 nM | > 10000 | 83
16 | B11 | 751 | 1.73 nM | 435 | 26
17 | B12 | > 10000 | 22.9 nM | 437 | 67
18 | B13 | 1010 | 25.6 nM | 39 | 30
19 | B14 | > 10000 | 0.65 nM | > 10000 | 90
20 | B15 | > 10000 | 14.1 nM | 710 | 68
21 | B16 | > 10000 | 7.54 nM | 1320 | 66
22 | B17 | – | 6.4 nM | > 10000 | 62.7
23 | B18 | – | 4.3 nM | > 10000 | 72.3
24 | B19 | – | 0.3 nM | > 10000 | 85.4
25 | B20 | – | 0.23 nM | > 10000 | 88.7
26 | B21 | – | 3.4 nM | > 10000 | 91.6
27 | B22 | – | 2.9 nM | > 10000 | 94
28 | B23 | – | 1.9 nM | > 10000 | 91.9
29 | B24 | – | 2 nM | > 10000 | 87.1
